According to US20250361268A1, “NOVEL ANTI-INFLAMMATORY PEPTIDE AND USE THEREOF” (NOVACELL TECHNOLOGY INC., priority 2022, published 2025):

T1: FPR1 (UniProt P21462 1-350, limits assumed)
T1 sequence (looked up): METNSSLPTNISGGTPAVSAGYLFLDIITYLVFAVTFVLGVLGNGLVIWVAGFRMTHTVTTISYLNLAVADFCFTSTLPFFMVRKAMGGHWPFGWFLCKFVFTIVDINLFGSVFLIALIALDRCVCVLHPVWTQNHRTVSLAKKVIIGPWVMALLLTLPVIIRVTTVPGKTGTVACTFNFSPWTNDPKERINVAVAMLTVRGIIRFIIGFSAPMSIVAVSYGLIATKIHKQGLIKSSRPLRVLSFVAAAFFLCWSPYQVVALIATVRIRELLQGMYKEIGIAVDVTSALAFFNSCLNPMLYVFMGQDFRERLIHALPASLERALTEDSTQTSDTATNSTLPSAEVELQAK

B1: peptide of SEQ ID NO 69 (peptide)
peptide: KMKYKPM
HELM: PEPTIDE1{[CCCCCCCC(=O)[*:2]].K.M.K.Y.K.P.[dM].[am]}$$$$V2.0
SMILES: CCCCCCCC(=O)N[C@@H](CCCCN)C(=O)N[C@@H](CCSC)C(=O)N[C@@H](CCCCN)C(=O)N[C@@H](Cc1ccc(O)cc1)C(=O)N[C@@H](CCCCN)C(=O)N1CCC[C@H]1C(=O)N[C@H](CCSC)C(N)=O
B2: peptide of SEQ ID NO 131 (peptide)
peptide: IKFKYM
HELM: PEPTIDE1{I.K.F.K.Y.[dM].[am]}$$$$V2.0; N-terminus assumed
SMILES: CC[C@H](C)[C@H](N)C(=O)N[C@@H](CCCCN)C(=O)N[C@@H](Cc1ccccc1)C(=O)N[C@@H](CCCCN)C(=O)N[C@@H](Cc1ccc(O)cc1)C(=O)N[C@H](CCSC)C(N)=O
B3: peptide of SEQ ID NO 129 (peptide)
peptide: IKFWMM
HELM: PEPTIDE1{I.K.F.W.M.[dM].[am]}$$$$V2.0; N-terminus assumed
SMILES: CC[C@H](C)[C@H](N)C(=O)N[C@@H](CCCCN)C(=O)N[C@@H](Cc1ccccc1)C(=O)N[C@@H](Cc1c[nH]c2ccccc12)C(=O)N[C@@H](CCSC)C(=O)N[C@H](CCSC)C(N)=O
B4: peptide of SEQ ID NO 77 (peptide)
peptide: RWRYWYM
HELM: PEPTIDE1{R.W.R.Y.W.Y.[dM].[am]}$$$$V2.0; N-terminus assumed
SMILES: CSCC[C@@H](NC(=O)[C@H](Cc1ccc(O)cc1)NC(=O)[C@H](Cc1c[nH]c2ccccc12)NC(=O)[C@H](Cc1ccc(O)cc1)NC(=O)[C@H](CCCNC(=N)N)NC(=O)[C@H](Cc1c[nH]c2ccccc12)NC(=O)[C@@H](N)CCCNC(=N)N)C(N)=O
B5: peptide of SEQ ID NO 73 (peptide)
peptide: MKYKPM
HELM: PEPTIDE1{[CCCCCCCC(=O)[*:2]].M.K.Y.K.P.[dM].[am]}$$$$V2.0
SMILES: CCCCCCCC(=O)N[C@@H](CCSC)C(=O)N[C@@H](CCCCN)C(=O)N[C@@H](Cc1ccc(O)cc1)C(=O)N[C@@H](CCCCN)C(=O)N1CCC[C@H]1C(=O)N[C@H](CCSC)C(N)=O
B6: peptide of SEQ ID NO 128 (peptide)
peptide: IKFWYM
HELM: PEPTIDE1{I.K.F.W.Y.[dM].[am]}$$$$V2.0; N-terminus assumed
SMILES: CC[C@H](C)[C@H](N)C(=O)N[C@@H](CCCCN)C(=O)N[C@@H](Cc1ccccc1)C(=O)N[C@@H](Cc1c[nH]c2ccccc12)C(=O)N[C@@H](Cc1ccc(O)cc1)C(=O)N[C@H](CCSC)C(N)=O
B7: peptide of SEQ ID NO 88 (peptide)
peptide: MRYWYM
HELM: PEPTIDE1{[CCCCCCCC(=O)[*:2]].M.R.Y.W.Y.[dM].[am]}$$$$V2.0
SMILES: CCCCCCCC(=O)N[C@@H](CCSC)C(=O)N[C@@H](CCCNC(=N)N)C(=O)N[C@@H](Cc1ccc(O)cc1)C(=O)N[C@@H](Cc1c[nH]c2ccccc12)C(=O)N[C@@H](Cc1ccc(O)cc1)C(=O)N[C@H](CCSC)C(N)=O
B8: peptide of SEQ ID NO 66 (peptide)
peptide: KMKYKPM
HELM: PEPTIDE1{K.M.K.Y.K.P.[dM].[am]}$$$$V2.0; N-terminus assumed
SMILES: CSCC[C@H](NC(=O)[C@@H](N)CCCCN)C(=O)N[C@@H](CCCCN)C(=O)N[C@@H](Cc1ccc(O)cc1)C(=O)N[C@@H](CCCCN)C(=O)N1CCC[C@H]1C(=O)N[C@H](CCSC)C(N)=O
B9: peptide of SEQ ID NO 12 (peptide)
peptide: KMKYKVM
HELM: PEPTIDE1{[CCCCCCCC(=O)[*:2]].K.M.K.Y.K.V.[dM].[am]}$$$$V2.0
SMILES: CCCCCCCC(=O)N[C@@H](CCCCN)C(=O)N[C@@H](CCSC)C(=O)N[C@@H](CCCCN)C(=O)N[C@@H](Cc1ccc(O)cc1)C(=O)N[C@@H](CCCCN)C(=O)N[C@H](C(=O)N[C@H](CCSC)C(N)=O)C(C)C
B10: peptide of SEQ ID NO 84 (peptide)
peptide: RMRYWYM
HELM: PEPTIDE1{[CCCCCCCC(=O)[*:2]].R.M.R.Y.W.Y.[dM].[am]}$$$$V2.0
SMILES: CCCCCCCC(=O)N[C@@H](CCCNC(=N)N)C(=O)N[C@@H](CCSC)C(=O)N[C@@H](CCCNC(=N)N)C(=O)N[C@@H](Cc1ccc(O)cc1)C(=O)N[C@@H](Cc1c[nH]c2ccccc12)C(=O)N[C@@H](Cc1ccc(O)cc1)C(=O)N[C@H](CCSC)C(N)=O
B11: peptide of SEQ ID NO 126 (peptide)
peptide: MRYYYM
HELM: PEPTIDE1{[ac].M.R.Y.Y.Y.[dM].[am]}$$$$V2.0
SMILES: CSCC[C@H](NC(C)=O)C(=O)N[C@@H](CCCNC(=N)N)C(=O)N[C@@H](Cc1ccc(O)cc1)C(=O)N[C@@H](Cc1ccc(O)cc1)C(=O)N[C@@H](Cc1ccc(O)cc1)C(=O)N[C@H](CCSC)C(N)=O
B12: peptide of SEQ ID NO 71 (peptide)
peptide: MKYKPM
HELM: PEPTIDE1{[ac].M.K.Y.K.P.[dM].[am]}$$$$V2.0
SMILES: CSCC[C@H](NC(C)=O)C(=O)N[C@@H](CCCCN)C(=O)N[C@@H](Cc1ccc(O)cc1)C(=O)N[C@@H](CCCCN)C(=O)N1CCC[C@H]1C(=O)N[C@H](CCSC)C(N)=O
B13: peptide of SEQ ID NO 132 (peptide)
peptide: IKFKVM
HELM: PEPTIDE1{I.K.F.K.V.[dM].[am]}$$$$V2.0; N-terminus assumed
SMILES: CC[C@H](C)[C@H](N)C(=O)N[C@@H](CCCCN)C(=O)N[C@@H](Cc1ccccc1)C(=O)N[C@@H](CCCCN)C(=O)N[C@H](C(=O)N[C@H](CCSC)C(N)=O)C(C)C
B14: peptide of SEQ ID NO 10 (peptide)
peptide: KMKYKVM
HELM: PEPTIDE1{[ac].K.M.K.Y.K.V.[dM].[am]}$$$$V2.0
SMILES: CSCC[C@H](NC(=O)[C@H](CCCCN)NC(C)=O)C(=O)N[C@@H](CCCCN)C(=O)N[C@@H](Cc1ccc(O)cc1)C(=O)N[C@@H](CCCCN)C(=O)N[C@H](C(=O)N[C@H](CCSC)C(N)=O)C(C)C
B15: peptide of SEQ ID NO 90 (peptide)
peptide: MKYWYM
HELM: PEPTIDE1{[ac].M.K.Y.W.Y.[dM].[am]}$$$$V2.0
SMILES: CSCC[C@H](NC(C)=O)C(=O)N[C@@H](CCCCN)C(=O)N[C@@H](Cc1ccc(O)cc1)C(=O)N[C@@H](Cc1c[nH]c2ccccc12)C(=O)N[C@@H](Cc1ccc(O)cc1)C(=O)N[C@H](CCSC)C(N)=O
B16: peptide of SEQ ID NO 130 (peptide)
peptide: IKKWMM
HELM: PEPTIDE1{I.K.K.W.M.[dM].[am]}$$$$V2.0; N-terminus assumed
SMILES: CC[C@H](C)[C@H](N)C(=O)N[C@@H](CCCCN)C(=O)N[C@@H](CCCCN)C(=O)N[C@@H](Cc1c[nH]c2ccccc12)C(=O)N[C@@H](CCSC)C(=O)N[C@H](CCSC)C(N)=O
B17: peptide of SEQ ID NO 8 (peptide)
peptide: RMRYKVM
HELM: PEPTIDE1{[CCCCCCCC(=O)[*:2]].R.M.R.Y.K.V.[dM].[am]}$$$$V2.0
SMILES: CCCCCCCC(=O)N[C@@H](CCCNC(=N)N)C(=O)N[C@@H](CCSC)C(=O)N[C@@H](CCCNC(=N)N)C(=O)N[C@@H](Cc1ccc(O)cc1)C(=O)N[C@@H](CCCCN)C(=O)N[C@H](C(=O)N[C@H](CCSC)C(N)=O)C(C)C
B18: peptide of SEQ ID NO 9 (peptide)
peptide: KMKYKVM
HELM: PEPTIDE1{K.M.K.Y.K.V.[dM].[am]}$$$$V2.0; N-terminus assumed
SMILES: CSCC[C@H](NC(=O)[C@@H](N)CCCCN)C(=O)N[C@@H](CCCCN)C(=O)N[C@@H](Cc1ccc(O)cc1)C(=O)N[C@@H](CCCCN)C(=O)N[C@H](C(=O)N[C@H](CCSC)C(N)=O)C(C)C
B19: peptide of SEQ ID NO 79 (peptide)
peptide: WRYWYM
HELM: PEPTIDE1{W.R.Y.W.Y.[dM].[am]}$$$$V2.0; N-terminus assumed
SMILES: CSCC[C@@H](NC(=O)[C@H](Cc1ccc(O)cc1)NC(=O)[C@H](Cc1c[nH]c2ccccc12)NC(=O)[C@H](Cc1ccc(O)cc1)NC(=O)[C@H](CCCNC(=N)N)NC(=O)[C@@H](N)Cc1c[nH]c2ccccc12)C(N)=O
B20: peptide of SEQ ID NO 72 (peptide)
peptide: MKYKPM
HELM: PEPTIDE1{[CCCC(=O)[*:2]].M.K.Y.K.P.[dM].[am]}$$$$V2.0
SMILES: CCCC(=O)N[C@@H](CCSC)C(=O)N[C@@H](CCCCN)C(=O)N[C@@H](Cc1ccc(O)cc1)C(=O)N[C@@H](CCCCN)C(=O)N1CCC[C@H]1C(=O)N[C@H](CCSC)C(N)=O
B21: peptide of SEQ ID NO 91 (peptide)
peptide: MKYWYM
HELM: PEPTIDE1{[CCCC(=O)[*:2]].M.K.Y.W.Y.[dM].[am]}$$$$V2.0
SMILES: CCCC(=O)N[C@@H](CCSC)C(=O)N[C@@H](CCCCN)C(=O)N[C@@H](Cc1ccc(O)cc1)C(=O)N[C@@H](Cc1c[nH]c2ccccc12)C(=O)N[C@@H](Cc1ccc(O)cc1)C(=O)N[C@H](CCSC)C(N)=O

Biological target: T1, FPR1
Assay: cell-based or functional assay

EC50 for [Ca2+], > 10 µM:
B1
B2
B3
B4
B5
B6
B7
B8
B9
B10
B11
B12
B13
B14
B15
B16
B17
B18
B19
B20
B21
